Data from the DeepSol protein solubility set.

Assay: soluble on expression in E. coli; label from the status in PepcDB or PDB records

| Sequence | soluble on expression in E. coli |
| --- | --- |
| MSLQENISVTDSYSTGNAAQAMLEKLLQIYDVKMLVAQLNGVGENHWSAAILKRALANDSAWHRLSEKEFAHLQTLLPKPPEHHPHYAFRFIDLFAGIGGIRRGFESIGGQCVFTSEWNKHAVRTYKANHYCDPATHHFNEDIRDITLSHQEGVSDEAAAEHIRQHIPEHDVLLAGFPCQPFSLAGVSKKNSLGRAHGFACDTQGTLFFDVVRIIDARRPAMFVLENVKNLKSHDKGKTFRIIMQTLDELGYDVADAEDNGPDDPKIIDGKHFLPQHRERIVLVGFRRDLNLKADFTLRDISECFPAQRVTLAQLLDPMVEAKYILTPVLWKYLYRYAKKHQARGNGFGYGMVYPNNPQSVTRTLSARYYKDGAEILIDRGWDMATGEKDFDDPLNQQHRPRRLTPRECARLMGFEAPGEAKFRIPVSDTQAYRQFGNSVVVPVFAAVAKLLEPKIKQAVALRQQEAQHGRRSREGHHHHHH | soluble |
| MSLQESLQDRLAQVVELLHRHKVVEDLTHRQEGQHHDRVENLVHRQNLVELQRKLEELHPADIAHILESLPLDDRLTVWQLVKSEDDGDILLEVSDAVRETLIADMDDHEIIAATKDLDADELADLAPELPRDVVHELMESLDAQQRERVRSALSYEEDQVGALMDFEMVTIREDVSLEVVLRYLRRLKELPGHTDKLFVVDYDGVLKGVLPIKRLLVNDPDKQVLEVMATDPVTFHPDEDGYDAAQAFERYDLISAPVVDKGGKLIGRLTIDEMVDLIREESESEVLNMAGLREEEDIFASVWEGHHHHHH | soluble |
| MSLQFDARNMALLESLVVANVYLAPEKLQEELGISKRTLQYDVEKINKELDNIGLDGIQSVRGQGYYLLEDEKSTIKEILGNREASHKVFSASERRIRILFFLLVTDARVIIDTINECNEVSRNTSLQDIKQLKLALKQFNLELAYDRKNGNMVLGDERSIRQFFIHYCMNNEEIATADQLLDLMKINPMIKNQELFPKLDTIFEILAVTEKKIGIRYTDEVLERIGIMIFFFKERMKRNCYLNEQEEHEVESFEIAQEIYQQLQQSENFKINHAEITYLGKLLLGASRLNDDAAAEGKLDLIVEKIIAEFERLACVNFEDHRNLKKDLLLHLQPAYYRLKFQIEWINPLRTDIKQSYSDVYEITKKSLEPLEDLLGETIPEDEIAYVTILFGGYLSRKNNEGHHHHHH | soluble |
| MSLQGQIDIPLDIVGRWQADQSAYELAKTYYWAKVAHLAEHNDQLAQPTYEGAHLADISEINNAPATARRMLVVSSDLFRAQQTAHAFADLMGLDVELDPRLRERSFGEWEGMTREEICEHYADDYHSWRAHTGGETKHGVESRIHTGRRGAEAVRDIVAKHHDETMPTTLLLVGHGSWIVATVAVLLDMDPDDLNNVGAMRNAFWTRMTPHTDPRNADRPTWKLEEFNQGPAIASFADWENGPESLRAPGMPLWKPIIQEGHHHHHH | not soluble |
| MSLQKMKSSRKFLEGEPNIVIRKGELQYKVMKKNKIDINQLQSLLRQAGSFSIQEVEYAILETNGMVSVLPKSDFDKPTNKDLQIPSKSVSLPITLIIDGEIVRDNLKEAGVDEQWLKQELKKKNIDKTEDVLFAEWHKNKPLYTVTYEQSKGHHHHHH | soluble |
| MSLQLLLVDDEEDANEELAELLEGEGFCCFTASSVKMALHQLTAHPDIALVITDLRMPEESGIQLIRHLREHTSRQHLPVIVTSGHADMDDVSDLLRLHVLDLFRKPIYHVRLLETLNNLFPEPKIFQEGHHHHHH | soluble |
| MSLQNVESELKDIRLPYKTKSLCPECLKILEAEVYEENGKVMIRKVCEEHGEFVDVYWGDAEMFKKAARFAADGHGISTPITQNTTCPFSCGLCNNHKSHTALLNIVLTNRCDLACWYCFFYARRAGYVYEPTIEQIREMVRKAKNMKPIGCNAVQLTGGEPTLRDDLIDIIRMIKEEGYDHIQLNTNGIRLAEDPDFALRVRVAGVNTVYLSFDGVDEKTNPKNHHEIPKILENCRRAQLGLVLVPTVIKGVNDHQLGDIIRFAAENIDIVRGVNFQPVSLVGSMPRKEREQFRITIPDCIKAIEEQTNGEIGREDFYPVPSVVPISRFVEALTGQPQYELTTHFACGMATYIFKDNGRLIPITRFVDVEGLFEFLNEKAEEIAKSRMKTIRAIKDIIDLRKFVDTSKAPKGFNIAKILYEVLIKHDYSTLGEFHVKSLFIGMMHFQDLYNYDIARVERCEIHYGSPDGRIIPFCTFNVIPERYRDAIHEKYGIPIEEWEKRTGRKLKDDIKRAVRRPEGHHHHHH | soluble |
| MSLQPVAKTEQPEGGILYDFGKETFGFITLKNLSGKGKIDLYYGESPEEAKDKAYCETLDKLLLEPGQITDLAIRSTSPLHHSDNEYTLENSKAFRYVYITHEPEVQIGEVSMQYEYLPEEYRGNFRCNDEELNCIWEVGAYTMHLTTREFFIDGIKRDRWVWSGDAIQSYLMNYYLFFDSESVKRTIWLLRGKDPVTSHSNTIMDYTFYWFLSVYDYYMYSGDRHFVNQLYPRMQTMMDYVLGRTNKNGMVEGMSGDWVFVDWADGYLDKKGELSFEQVLFCRSLETMALCADLVGDKDGQQKYEKLASALKAKLEPTFWNNQKQAFVHNCVDGRQSDAVTRYANMFSVFFDYLNADKQQAIKQSVLLNDEILKITTPYMRFYELEALCALGEQETVMKEMKAYWGGMLKAGATSFWEKYNPEESGTQHLAMYGRPYGKSLCHAWGASPIYLLGKYYLGVKPTKEGYKEFAVSPVLGGLKWMEGTVPTPNGDIHVYMDNKTIKVKATEGKGYLTIQSRRQPKANMGTVEKVSEGVWRLWIDSPEERIVTYRLEGHHHHHH | soluble |
| MSLQRSYCYQLTRRFCQSHEHTKLAKWLNINSKLNPFRPDPPVGGSPFLHGVGDEDKPVYIPQDVRVGHTFVVGTTRVGKTRLASILINQDIRNGDAVIVVDPKGDQDLVRDMVAACKVSGRTEDFKIVHLGFPEQSAQYNPLKKFDQISEVATRITDAISAEGEGKQFAAFAWKYVNIVAICLEEMNQPITYQTIAFYISRLEQLLMSYADNILPNHYLNYHQEIDDIIEEHDSKIGKNNKTKSPMERHQAVIQYIKDHINKTIKSNNAEALHDQILIDLYDAAIMDKHYYDKITASVGPVLSEINKSNASKILSSKAQPGDIELMDVIKNKKVLYIGLDSLTNPNIAQAVGKAFLSDLVSTAGKIYKEEGHHHHHH | soluble |
| MSLQTYSSSKRFNINVSQTIGRRIYMEDMVMIKGELFDGIDYIGVFDGHNGKDAAKKAMETFHKLLDEYLIKSDHYLEHLNHICNEIQQLISFTTASGTTASVIIIREDDVIFCYIGDSPIYIKSNEQVKKISIDHNTSNEEEVKRIINCGGSVVDINGTKRVNSKIVLTRSLGDKSLHPPLTNEPTIISIPLNEIDSIIVASDGISSISCELLNELTNPTFGLEQQAVNIRNIAYEKNSPDNISVVVIQITQPIISEGHHHHHH | soluble |
| MSLQVSKFKNLPKIELHLHLDCSLSYDVVKKIDPTVDIKHYKSSFQAGESCSSLKDYLKCADNAIELMQTKENLQFIVEDLFKQLHDDNVIYAEIRFAPLLHCEGDLNAKKVVDIICMSALIQSKKYNIDYGLILCTLRHYSEDESLKTVKLVKEFSEKGVVGFDIAADEAGYPIDNHIKAFTYAKNNNLNITAHAGEAKGSESIWETINKLYAKRIGHGVRCLEDKKLVKFLSDNNYHLEICLTSNIKTNTFDLFTDHPINEIYDSSISLSLNTDGRAISNTSLSKEYAIAHSELNWSMKKIIQSNLNAIEHAFTTNEKKEKLRKHLKSFSEGHHHHHH | soluble |
| MSLQVSQYLYQNAQSIWGDCISHPFVQGIGRGTLERDKFRFYIIQDYLFLLEYAKVFALGVVKACDEAVMREFSNAIQDILNNEMSIHNHYIRELQITQKELQNACPTLANKSYTSYMLAEGFKGSIKEVAVAVLACGWSYLVIAQNLSQIPNALEDAFYGHWIKGYSSKEFQACVTWNINLLDSLALASSKQEIEKLKEIFIATSEYEYQFWDMAYQSEGGSHHHHHH | soluble |
| MSLQYESHSQLIIKSSDGGSSFDPSSLLMAAGVSGASGGTESQLVEAYIQSADMIKYLDETIGLREHYMSDKADMFSGLSSSHKQEDFYKFYLDHIEVSVDSASSVISLRTRAFDAEYAKIINQAIVDKAEEFINNINNDLAKSKLTFAKGEHEIVEQKLQQAKTEILSFQSKYNVLDPSAEGAAFQQIAFSLQATLAQKKAELSTMSTMMSNVAPEVINIKREIAALQKEVEKQKERISTAEGESEALSVSELMAQYSNLQVQLQLAIQAYSSSLITLENARVEAYQKLQHLVTVESPTLPDDNAYPTEGHHHHHH | soluble |
